According to the supplement of paper PMC10567573:

B1: IKZF1 (parent)
chain: YHSQDRYEFSSHITRGEHRFHMS

Variants of: B1
Assay: protein stability index of a GFP-peptide fusion (GPS, HEK-293T) (PSI 1-6); higher = more stable
Details: c terminus: native
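Also: lentivirally expressed fusions sorted by FACS into six bins by GFP to DsRed ratio, PSI derived from sequencing read proportions per bin multiplied by bin number.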

Protein stability index of substitutions, site by site:
S11: H 1.61; N 1.92; D 2.01; R 2.33; L 3.83; V 1.6; C 1.68; I 1.65; K 1.95; F 2.9; A 2.36; Q 2.07; W 2.27; Y 1.67; P 3.03; M 1.48; G 2; T 2.02; E 2.15
D5: G 2.85; M 3.27; V 2.31; K 3.72; I 2.41; S 1.79; E 3; A 1.5; W 3.3; Y 2.05; R 1.61; P 2.04; T 2.18; F 2.55; C 3.34; H 2.74; N 1.84; L 2.17
T14: H 1.99; E 1.68; P 1.52; Y 1.37; R 2.07; N 2.24; A 2.38; W 2.7; D 1.83; I 2.15; V 2.04; L 2.23; M 1.84; Q 1.34; K 1.49; G 1.54; S 1.85; C 1.58; F 1.47
S10: M 1.6; Q 2.08; K 1.27; N 1.72; C 1.56; A 1.4; Y 2; P 2.08; I 1.92; W 3.17; H 1.84; L 1.66; F 2.1; D 1.74; E 1.74; V 1.95; R 1.9; T 1.62; G 1.92
H2: W 2.41; K 2.01; Q 2.4; V 2.58; S 3.36; F 2.51; D 3.76; T 3.16; E 3.98; L 2.02; Y 2.85; P 3.48; M 2.48; R 3.37; A 2.5; I 1.94; C 2.04; N 3.72; G 3.11
I13: V 1.78; Q 1.62; D 1.52; T 1.97; K 1.82; A 1.85; M 2.04; N 2.05; C 2.08; S 2.03; W 1.71; L 2.52; H 2.36; P 1.78; G 2.7; R 1.49; Y 1.49; F 1.81; E 1.83
Q4: P 1.94; L 2.08; A 2.13; C 1.44; D 2.75; H 2.21; M 1.77; R 1.94; T 1.63; F 2.33; K 2.21; G 2.3; N 1.89; W 2.22; E 3.35; I 1.57; Y 1.77; S 2.42; V 2.23
Y1: R 4.05; M 3.5; E 4; L 3.37; G 3.97; W 2.94; D 4.05; K 2.12; S 4.05; T 3.5; A 3.73; V 3.57; Q 3.99; H 3.76; P 3.84; N 4.05; C 3.03; F 1.73; I 3.35
R6: T 1.8; Q 1.9; H 1.8; C 2.84; N 2.44; L 2.98; I 2.25; K 2.64; D 2.49; G 2.22; S 1.87; Y 2.24; E 2.29; V 2.07; M 2.65; W 2.83; F 3.44; A 2.22; P 2.23
G16: L 1.53; K 2.27; M 2.85; W 1.51; D 2.52; H 1.56; I 1.77; Q 1.58; N 2.04; C 2.74; F 1.9; S 1.5; V 1.35; P 2.01; E 3.6; T 2.4; R 2.38; A 1.76; Y 4.64
E17: Y 1.7; S 1.64; A 2.75; N 2.92; C 3.05; V 1.68; W 2.07; R 1.94; Q 2.48; K 2.41; F 1.62; P 2.04; H 1.99; M 1.71; G 1.56; I 2.84; D 1.63; T 1.4; L 2.11
H12: Y 1.98; R 2.79; G 3.61; S 3.03; N 2.67; W 2.85; M 2.74; T 2.15; V 2.49; F 2.04; D 1.88; Q 2.83; E 2.47; A 1.71; K 2.31; C 2.66; P 2.27; L 2.06; I 1.92
E8: H 4.13; Q 2.17; T 3.44; N 3.99; S 3.3; F 3.7; V 1.98; D 2.45; W 2.44; I 2.78; G 1.72; A 2.79; C 2.5; L 4.01; R 1.8; M 2.11; P 3.38; Y 3.85; K 3.34
Y7: L 2.33; P 1.78; A 1.89; F 2.78; E 2.18; K 1.51; C 1.91; I 2.27; G 2.44; D 2.26; H 1.49; Q 2.04; N 1.72; W 2.46; V 2; R 2.08; M 1.95; S 2.2; T 1.85
R15: P 1.42; A 2.46; C 2.69; W 1.82; G 1.87; H 1.73; L 2.12; V 1.82; Q 2.22; N 1.99; S 1.55; T 2.9; E 1.81; D 2; I 3.49; F 2.34; K 1.8; M 1.47; Y 2.29
H18: F 2.66; A 1.45; L 1.99; P 1.81; K 2.22; C 2.04; E 1.97; I 1.65; N 1.45; G 1.6; M 2.75; D 1.12
S3: F 1.76; V 2.15; L 2.39; T 2.13; C 1.59; W 2.61; A 2.66; R 2.47; I 2.73; K 2.33; P 2.5; H 2.14; D 2.76; G 2; Y 1.63; Q 2.54; N 1.61; M 1.95; E 2.56
F9: H 2.04; Q 1.17; Y 1.95; V 2.65; N 1.8; P 1.73; S 3.12; E 1.97; D 1.98; W 3.1; K 2.05; L 1.96; A 2.02; I 2.03; G 1.97; R 1.67; M 2.44; C 2.54; T 1.49
